{
  "source": "patent US20230272011A1",
  "about": "(AVACTA LIFE SCIENCES, published 2023)",
  "binders": {"B1": {"name": "HSA-41 (designed binder)", "chain": "MIPRGLSEAKPATPEIQEIVDKVKPQLEEKTNETYGKLEAVQYKTQVLANFFQRRWPGSTNYYIKVRAGDNKYMHLKVFNGPWKFRNTDRGADRVLTGYQVDKNKDDELTGFHHHHHH", "notes": "also called HSA-41 parent; HSA-41 AH parent"}},
  "key": {"[1]": {"molecular_target": "T1, human serum albumin (human, UniProt P02768 25-609)", "T1 construct": "mature; Bought protein; biotinylated in the Octet and HTRF assays; also called HSA; HuSA", "experiment": "SPR (Biacore), immobilised HSA, Affimer analyte"}, "[2]": {"molecular_target": "T1, human serum albumin", "experiment": "SPR (Biacore) binding response to HSA at pH 7.4, Affimer at 50 nM", "source_text": "Final clones were sequence-verified, produced from E. coli, and affinity purified as described in Example 3."}, "[3]": {"molecular_target": "T2, mouse serum albumin (mouse, UniProt P07724 25-608)", "T2 construct": "also called MSA", "T2 sequence (P07724 25-608 limits assumed)": "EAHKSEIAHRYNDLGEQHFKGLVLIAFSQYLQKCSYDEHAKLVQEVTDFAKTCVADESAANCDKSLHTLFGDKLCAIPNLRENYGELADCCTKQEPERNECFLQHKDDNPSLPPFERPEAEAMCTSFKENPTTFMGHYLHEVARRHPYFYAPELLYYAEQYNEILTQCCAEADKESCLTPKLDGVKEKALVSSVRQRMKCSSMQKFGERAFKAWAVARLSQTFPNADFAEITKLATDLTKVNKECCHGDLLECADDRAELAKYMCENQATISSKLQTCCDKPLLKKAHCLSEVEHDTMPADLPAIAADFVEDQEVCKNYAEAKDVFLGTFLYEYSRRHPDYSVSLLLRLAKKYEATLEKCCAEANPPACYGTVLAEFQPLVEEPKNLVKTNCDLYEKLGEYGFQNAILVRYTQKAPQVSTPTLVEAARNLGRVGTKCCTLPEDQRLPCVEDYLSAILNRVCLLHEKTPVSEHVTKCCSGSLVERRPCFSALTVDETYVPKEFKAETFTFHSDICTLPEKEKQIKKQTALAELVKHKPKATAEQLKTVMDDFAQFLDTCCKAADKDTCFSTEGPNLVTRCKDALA", "experiment": "Octet biolayer interferometry, pH 7.4", "description": "(§1) Biotinylated antigen was captured onto SA sensors at 1 μg/ml for 600 seconds in a buffer comprising PBS-T (0.01% Tween 20)+1% casein at either pH 6.0 or 7.4. Association was carried out for 300 seconds and dissociation for 600 seconds, and regeneration was performed using 10 mM glycine pH 1.5 (GE Healthcare) for 3×5 seconds. All steps were carried out at 1000 rpm and 25° C. Purified AFFIMER® polypeptide in two-fold serial dilutions was analyzed at a starting concentration of approximately 10× K_{D value}. Kinetics analyses were carried out using the Octet data analysis software, subtracting the reference sensor (loaded with antigen), aligning the Y-axis to baseline, and using inter-step correction to align association to dissociation. Savitzky-Golay filtering was applied and the data processed. Analysis of the data was carried out with a 1:1 model, global fit, Rₘₐₓ unlinked by sensor.\n(§2) AFFIMER® polypeptides were incubated with AcTEV for 1 hour at 30° C. as recommend by the manufacturer (Invitrogen) and removal of cleaved His tag by binding NiNTA resin (Generon) and collecting the cleaved protein flow through. […] Pharmacokinetic profile of IV-injected His tag cleaved AFFIMER® protein compared to C-terminally His-tagged AFFIMER® protein was evaluated."}, "[4]": {"molecular_target": "T3, cynomolgus serum albumin (cynomolgus)", "T3 construct": "also called CSA; cyno serum albumin", "T3 sequence (A2V9Z4 25-608)": "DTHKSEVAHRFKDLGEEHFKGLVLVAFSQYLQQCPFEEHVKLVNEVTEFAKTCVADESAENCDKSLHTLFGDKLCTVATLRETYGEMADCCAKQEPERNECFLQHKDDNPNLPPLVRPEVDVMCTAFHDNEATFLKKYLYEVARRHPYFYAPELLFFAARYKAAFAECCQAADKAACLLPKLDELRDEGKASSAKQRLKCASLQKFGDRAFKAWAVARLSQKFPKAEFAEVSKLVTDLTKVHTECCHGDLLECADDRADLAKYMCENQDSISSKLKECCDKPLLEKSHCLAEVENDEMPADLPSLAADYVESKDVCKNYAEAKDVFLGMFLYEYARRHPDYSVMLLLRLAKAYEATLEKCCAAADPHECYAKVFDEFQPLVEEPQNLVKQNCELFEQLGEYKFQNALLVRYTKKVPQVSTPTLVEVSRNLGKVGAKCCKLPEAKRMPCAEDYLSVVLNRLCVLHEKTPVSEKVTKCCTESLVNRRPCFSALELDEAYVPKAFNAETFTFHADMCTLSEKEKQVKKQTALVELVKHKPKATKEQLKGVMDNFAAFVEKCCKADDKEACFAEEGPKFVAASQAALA", "experiment": "Octet biolayer interferometry, pH 7.4", "description": "as §1, §2"}, "[5]": {"molecular_target": "T1, human serum albumin", "experiment": "Octet biolayer interferometry, pH 7.4", "description": "as §1, §2"}, "[6]": {"molecular_target": "T2, mouse serum albumin", "experiment": "binding ELISA on coated MSA, pH 6.0", "description": "(§3) Human (Sigma-Aldrich); Cynomolgus and Mouse (Abcam); Equine (Abcam); Canine (Abcam); Mouse (Sigma-Aldrich); Rabbit (Sigma-Aldrich); Porcine (Sigma-Aldrich);, and Rat (Sigma-Aldrich) serum albumin were coated overnight on 96 well plates (Corning Costar) at 1 μg/ml in PBS at the appropriate pH (pH 6.0 or 7.4). Plates were saturated using 5% Casein (Sigma-Aldrich) buffer in PBS. […] Plates were then washed and AFFIMER® proteins were detected using a biotinylated polyclonal antibody anti-Cystatin (R&D System) for 90 minutes. After washing, streptavidin-HRP (Thermo Fisher Scientific) was added and incubated for 30 minutes.\n(§4) Briefly, PD-1 was coated overnight on the plate at 1 μg/ml in carbonate buffer. Then plates were saturated using 5% Casein/PBS buffer. […] After saturation, the mix was added to the plates and incubated for 90 minutes. Plates were then washed and the detection polyclonal antibody, biotinylated anti-PD-L1, was added. After washing the plates, streptavidin-HRP was added for 30 minutes. After a final wash, development of the reaction was performed using TMB (Pierce) and the plates were read using a plate reader at 450 nm (FIG. 26C)."}, "[7]": {"molecular_target": "T1, human serum albumin", "experiment": "Biacore, immobilised HSA, pH 7.4", "description": "Affinities for mouse, human, and cynomolgus serum were also measured at pH 7.4 for four (4) AFFIMER® binders using surface plasmon resonance (SPR) (FIG. 5, Table 5). […] A concentration titration of AFFIMER® monomers was run as analyte at a flow rate of 30 μl/min or 60 μl/min. Fc2-1, Fc3-1 and Fc4-1 kinetic data was blank subtracted and fit to a 1:1 Langmuir binding model (BIAcore Evalution software; GE) to calculate KD values."}, "[8]": {"molecular_target": "T2, mouse serum albumin", "experiment": "Octet biolayer interferometry, biotinylated albumin on SA sensors, pH 6.0", "summary_of_the_method": "(§5)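 Affinity is measured against albumin captured at 1 μg/ml on streptavidin tips, in PBS-T (0.01% Tween 20) plus 1% casein at the stated pH, at 25° C.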"}, "[9]": {"molecular_target": "T3, cynomolgus serum albumin", "experiment": "Octet biolayer interferometry, biotinylated albumin on SA sensors, pH 6.0", "summary_of_the_method": "as §5"}, "[10]": {"molecular_target": "T1, human serum albumin", "experiment": "Octet biolayer interferometry, biotinylated albumin on SA sensors, pH 6.0", "summary_of_the_method": "as §5"}, "[11]": {"molecular_target": "T2, mouse serum albumin", "experiment": "binding ELISA on coated MSA, panel title 'Affimer binding to MSA, pH 7' (legend: pH 7.4)", "description": "as §3, §4"}, "[12]": {"molecular_target": "T1, human serum albumin", "experiment": "binding ELISA on coated albumin, pH 6.0, panel 'HSA Binding at pH 6.0'"}, "[13]": {"molecular_target": "T2, mouse serum albumin", "experiment": "BLI (Octet), biotinylated albumin on SA sensor, pH 6.0", "summary_of_the_method": "as §5"}, "[14]": {"molecular_target": "T3, cynomolgus serum albumin", "experiment": "BLI (Octet), biotinylated albumin on SA sensor, pH 6.0", "summary_of_the_method": "as §5"}, "[15]": {"molecular_target": "T1, human serum albumin", "experiment": "BLI (Octet), biotinylated albumin on SA sensor, pH 6.0", "summary_of_the_method": "as §5"}, "[16]": {"molecular_target": "T2, mouse serum albumin", "experiment": "Octet biolayer interferometry, pH 6.0", "description": "as §1, §2"}, "[17]": {"molecular_target": "T3, cynomolgus serum albumin", "experiment": "Octet biolayer interferometry, pH 6.0", "description": "as §1, §2"}, "[18]": {"molecular_target": "T1, human serum albumin", "experiment": "Octet biolayer interferometry, pH 6.0", "description": "as §1, §2"}, "[19]": {"molecular_target": "T2, mouse serum albumin", "experiment": "binding ELISA on coated albumin, pH 6.0, panel 'MSA Binding at pH 6.0'", "description": "Briefly, ELISA was performed as follow:\nas §3"}},
  "data": [
    {"binder": "B1", "values": [
      {"measurement": "Kd", "setting": "[1]", "value": 2.4, "unit": "nM"},
      {"measurement": "koff", "setting": "[1]", "value": 0.00354, "unit": "s⁻¹"},
      {"measurement": "kon", "setting": "[1]", "value": "1.48e+06", "unit": "M⁻¹ s⁻¹"},
      {"measurement": "binding response", "setting": "[2]", "value": 36.8},
      {"measurement": "Kd", "setting": "[3]", "value": 82, "unit": "nM"},
      {"measurement": "Kd", "setting": "[4]", "value": 209, "unit": "nM"},
      {"measurement": "Kd", "setting": "[5]", "value": 7.74, "unit": "nM"},
      {"measurement": "EC50 (read off the curve)", "setting": "[6]", "value": "~0.7", "unit": "nM"},
      {"measurement": "Kd", "setting": "[7]", "value": 3.34, "unit": "nM"},
      {"measurement": "koff", "setting": "[7]", "value": 0.00563, "unit": "s⁻¹"},
      {"measurement": "kon", "setting": "[7]", "value": "1.69e+06", "unit": "M⁻¹ s⁻¹"},
      {"measurement": "koff", "setting": "[8]", "value": 0.0447, "unit": "s⁻¹"},
      {"measurement": "kon", "setting": "[8]", "value": 470000, "unit": "M⁻¹ s⁻¹"},
      {"measurement": "koff", "setting": "[9]", "value": 0.00717, "unit": "s⁻¹"},
      {"measurement": "kon", "setting": "[9]", "value": 68100, "unit": "M⁻¹ s⁻¹"},
      {"measurement": "koff", "setting": "[10]", "value": 0.00198, "unit": "s⁻¹"},
      {"measurement": "kon", "setting": "[10]", "value": 278000, "unit": "M⁻¹ s⁻¹"},
      {"measurement": "EC50 (read off the curve)", "setting": "[11]", "value": "~6", "unit": "nM"},
      {"measurement": "EC50 (read off the curve)", "setting": "[12]", "value": "~0.04", "unit": "nM"},
      {"measurement": "Kd", "setting": "[13]", "value": 95.2, "unit": "nM"},
      {"measurement": "Kd", "setting": "[14]", "value": 105, "unit": "nM"},
      {"measurement": "Kd", "setting": "[15]", "value": 7.1, "unit": "nM"},
      {"measurement": "Kd", "setting": "[16]", "value": 50.5, "unit": "nM"},
      {"measurement": "Kd", "setting": "[17]", "value": 220, "unit": "nM"},
      {"measurement": "Kd", "setting": "[18]", "value": 11.9, "unit": "nM"},
      {"measurement": "EC50 (read off the curve)", "setting": "[19]", "value": "~0.7", "unit": "nM"}
    ]}
  ]
}
